Measurements reported in the MegaScale stability set (Tsuboyama et al. 2023).

B1: EHEE_rd3_0053 (parent)
chain: TYTFKVDNKDQAKKAAKWAKKLGLSFQIEKHGDTFKITVQ

Variants of: B1
Assay: folding stability dG (cDNA display proteolysis); higher = more stable
Conditions: PBS, room temperature
With TYTFKVDEKDQAKKAAKWAKKLGLSFQIEKHGDTFKITVQ [N8E] the “folding stability dG” value was 1.16 kcal/mol. For TYTFKVDFKDQAKKAAKWAKKLGLSFQIEKHGDTFKITVQ [N8F], the “folding stability dG” value was 1.46 kcal/mol. In the case of TYTFKVDGKDQAKKAAKWAKKLGLSFQIEKHGDTFKITVQ [N8G], the “folding stability dG” value is reported as 2.35 kcal/mol. In the case of TYTFKVDHKDQAKKAAKWAKKLGLSFQIEKHGDTFKITVQ [N8H], the “folding stability dG” value is reported as 1.73 kcal/mol. For TYTFKVDIKDQAKKAAKWAKKLGLSFQIEKHGDTFKITVQ [N8I], the “folding stability dG” value was 1.16 kcal/mol. In the case of TYTFKVDKKDQAKKAAKWAKKLGLSFQIEKHGDTFKITVQ [N8K], the “folding stability dG” value is reported as 1.62 kcal/mol. With TYTFKVDLKDQAKKAAKWAKKLGLSFQIEKHGDTFKITVQ [N8L] the “folding stability dG” value was 1.43 kcal/mol. With TYTFKVDMKDQAKKAAKWAKKLGLSFQIEKHGDTFKITVQ [N8M] the “folding stability dG” value was 1.15 kcal/mol. In the case of TYTFKVDPKDQAKKAAKWAKKLGLSFQIEKHGDTFKITVQ [N8P], the “folding stability dG” value is reported as 0.466 kcal/mol. In the case of TYTFKVDQKDQAKKAAKWAKKLGLSFQIEKHGDTFKITVQ [N8Q], the “folding stability dG” value is reported as 1.47 kcal/mol. In the case of TYTFKVDRKDQAKKAAKWAKKLGLSFQIEKHGDTFKITVQ [N8R], the “folding stability dG” value is reported as 1.86 kcal/mol. For TYTFKVDSKDQAKKAAKWAKKLGLSFQIEKHGDTFKITVQ [N8S], the “folding stability dG” value was 2.56 kcal/mol. With TYTFKVDTKDQAKKAAKWAKKLGLSFQIEKHGDTFKITVQ [N8T] the “folding stability dG” value was 2.78 kcal/mol. In the case of TYTFKVDVKDQAKKAAKWAKKLGLSFQIEKHGDTFKITVQ [N8V], the “folding stability dG” value is reported as 0.955 kcal/mol. In the case of TYTFKVDWKDQAKKAAKWAKKLGLSFQIEKHGDTFKITVQ [N8W], the “folding stability dG” value is reported as 1.24 kcal/mol. In the case of TYTFKVDYKDQAKKAAKWAKKLGLSFQIEKHGDTFKITVQ [N8Y], the “folding stability dG” value is reported as 1.27 kcal/mol. With TYTFKVDNADQAKKAAKWAKKLGLSFQIEKHGDTFKITVQ [K9A] the “folding stability dG” value was 2.62 kcal/mol. In the case of TYTFKVDNDDQAKKAAKWAKKLGLSFQIEKHGDTFKITVQ [K9D], the “folding stability dG” value is reported as 1.91 kcal/mol. With TYTFKVDNEDQAKKAAKWAKKLGLSFQIEKHGDTFKITVQ [K9E] the “folding stability dG” value was 2.65 kcal/mol. In the case of TYTFKVDNFDQAKKAAKWAKKLGLSFQIEKHGDTFKITVQ [K9F], the “folding stability dG” value is reported as 2.74 kcal/mol. For TYTFKVDNGDQAKKAAKWAKKLGLSFQIEKHGDTFKITVQ [K9G], the “folding stability dG” value was 1.9 kcal/mol. In the case of TYTFKVDNHDQAKKAAKWAKKLGLSFQIEKHGDTFKITVQ [K9H], the “folding stability dG” value is reported as 2.25 kcal/mol. For TYTFKVDNIDQAKKAAKWAKKLGLSFQIEKHGDTFKITVQ [K9I], the “folding stability dG” value was 2.87 kcal/mol. In the case of TYTFKVDNLDQAKKAAKWAKKLGLSFQIEKHGDTFKITVQ [K9L], the “folding stability dG” value is reported as 2.9 kcal/mol. For TYTFKVDNMDQAKKAAKWAKKLGLSFQIEKHGDTFKITVQ [K9M], the “folding stability dG” value was 2.74 kcal/mol. With TYTFKVDNNDQAKKAAKWAKKLGLSFQIEKHGDTFKITVQ [K9N] the “folding stability dG” value was 1.9 kcal/mol. In the case of TYTFKVDNPDQAKKAAKWAKKLGLSFQIEKHGDTFKITVQ [K9P], the “folding stability dG” value is reported as 2.31 kcal/mol. In the case of TYTFKVDNQDQAKKAAKWAKKLGLSFQIEKHGDTFKITVQ [K9Q], the “folding stability dG” value is reported as 2.26 kcal/mol. In the case of TYTFKVDNRDQAKKAAKWAKKLGLSFQIEKHGDTFKITVQ [K9R], the “folding stability dG” value is reported as 2.46 kcal/mol. With TYTFKVDNSDQAKKAAKWAKKLGLSFQIEKHGDTFKITVQ [K9S] the “folding stability dG” value was 2.14 kcal/mol. With TYTFKVDNTDQAKKAAKWAKKLGLSFQIEKHGDTFKITVQ [K9T] the “folding stability dG” value was 2.02 kcal/mol. With TYTFKVDNVDQAKKAAKWAKKLGLSFQIEKHGDTFKITVQ [K9V] the “folding stability dG” value was 2.57 kcal/mol. In the case of TYTFKVDNWDQAKKAAKWAKKLGLSFQIEKHGDTFKITVQ [K9W], the “folding stability dG” value is reported as 3.2 kcal/mol. In the case of TYTFKVDNYDQAKKAAKWAKKLGLSFQIEKHGDTFKITVQ [K9Y], the “folding stability dG” value is reported as 2.86 kcal/mol. In the case of TYTFKVDNKAQAKKAAKWAKKLGLSFQIEKHGDTFKITVQ [D10A], the “folding stability dG” value is reported as 2.83 kcal/mol. In the case of TYTFKVDNKCQAKKAAKWAKKLGLSFQIEKHGDTFKITVQ [D10C], the “folding stability dG” value is reported as 2.72 kcal/mol. With TYTFKVDNKEQAKKAAKWAKKLGLSFQIEKHGDTFKITVQ [D10E] the “folding stability dG” value was 2.73 kcal/mol. In the case of TYTFKVDNKFQAKKAAKWAKKLGLSFQIEKHGDTFKITVQ [D10F], the “folding stability dG” value is reported as 2.75 kcal/mol. With TYTFKVDNKGQAKKAAKWAKKLGLSFQIEKHGDTFKITVQ [D10G] the “folding stability dG” value was 2.44 kcal/mol. In the case of TYTFKVDNKHQAKKAAKWAKKLGLSFQIEKHGDTFKITVQ [D10H], the “folding stability dG” value is reported as 2.7 kcal/mol. With TYTFKVDNKIQAKKAAKWAKKLGLSFQIEKHGDTFKITVQ [D10I] the “folding stability dG” value was 2.62 kcal/mol. In the case of TYTFKVDNKKQAKKAAKWAKKLGLSFQIEKHGDTFKITVQ [D10K], the “folding stability dG” value is reported as 2.74 kcal/mol. For TYTFKVDNKLQAKKAAKWAKKLGLSFQIEKHGDTFKITVQ [D10L], the “folding stability dG” value was 2.68 kcal/mol. In the case of TYTFKVDNKMQAKKAAKWAKKLGLSFQIEKHGDTFKITVQ [D10M], the “folding stability dG” value is reported as 2.67 kcal/mol. For TYTFKVDNKNQAKKAAKWAKKLGLSFQIEKHGDTFKITVQ [D10N], the “folding stability dG” value was 2.6 kcal/mol. With TYTFKVDNKPQAKKAAKWAKKLGLSFQIEKHGDTFKITVQ [D10P] the “folding stability dG” value was 1.89 kcal/mol. With TYTFKVDNKQQAKKAAKWAKKLGLSFQIEKHGDTFKITVQ [D10Q] the “folding stability dG” value was 2.68 kcal/mol. With TYTFKVDNKRQAKKAAKWAKKLGLSFQIEKHGDTFKITVQ [D10R] the “folding stability dG” value was 2.8 kcal/mol. For TYTFKVDNKSQAKKAAKWAKKLGLSFQIEKHGDTFKITVQ [D10S], the “folding stability dG” value was 2.71 kcal/mol. In the case of TYTFKVDNKTQAKKAAKWAKKLGLSFQIEKHGDTFKITVQ [D10T], the “folding stability dG” value is reported as 2.73 kcal/mol. For TYTFKVDNKVQAKKAAKWAKKLGLSFQIEKHGDTFKITVQ [D10V], the “folding stability dG” value was 2.52 kcal/mol. With TYTFKVDNKWQAKKAAKWAKKLGLSFQIEKHGDTFKITVQ [D10W] the “folding stability dG” value was 2.98 kcal/mol. With TYTFKVDNKYQAKKAAKWAKKLGLSFQIEKHGDTFKITVQ [D10Y] the “folding stability dG” value was 3.04 kcal/mol. In the case of TYTFKVDNKDAAKKAAKWAKKLGLSFQIEKHGDTFKITVQ [Q11A], the “folding stability dG” value is reported as 2.65 kcal/mol. For TYTFKVDNKDCAKKAAKWAKKLGLSFQIEKHGDTFKITVQ [Q11C], the “folding stability dG” value was 3.05 kcal/mol. With TYTFKVDNKDDAKKAAKWAKKLGLSFQIEKHGDTFKITVQ [Q11D] the “folding stability dG” value was 2.39 kcal/mol. With TYTFKVDNKDEAKKAAKWAKKLGLSFQIEKHGDTFKITVQ [Q11E] the “folding stability dG” value was 2.3 kcal/mol. With TYTFKVDNKDFAKKAAKWAKKLGLSFQIEKHGDTFKITVQ [Q11F] the “folding stability dG” value was 1.85 kcal/mol. In the case of TYTFKVDNKDGAKKAAKWAKKLGLSFQIEKHGDTFKITVQ [Q11G], the “folding stability dG” value is reported as 1.97 kcal/mol. In the case of TYTFKVDNKDHAKKAAKWAKKLGLSFQIEKHGDTFKITVQ [Q11H], the “folding stability dG” value is reported as 2.1 kcal/mol. In the case of TYTFKVDNKDIAKKAAKWAKKLGLSFQIEKHGDTFKITVQ [Q11I], the “folding stability dG” value is reported as 1.97 kcal/mol. In the case of TYTFKVDNKDKAKKAAKWAKKLGLSFQIEKHGDTFKITVQ [Q11K], the “folding stability dG” value is reported as 2.38 kcal/mol. With TYTFKVDNKDLAKKAAKWAKKLGLSFQIEKHGDTFKITVQ [Q11L] the “folding stability dG” value was 2.33 kcal/mol.
